Values of other authors as cited in article PMC5686428.

Biological target: HSV-1 glycoprotein D (soluble gD) (Herpes simplex virus type 1) (UniProt Q69091)
Assay: not stated (cited)
Conditions: SYBR Green assay: 1-200 nM protein, DApt (dissolved in PBS, heated 95 C 3 min, cooled on ice), 30 min, read at 520 nm; assay buffer, pH and temperature not …

Chain of UniProt Q69091 (Q69091 26-331): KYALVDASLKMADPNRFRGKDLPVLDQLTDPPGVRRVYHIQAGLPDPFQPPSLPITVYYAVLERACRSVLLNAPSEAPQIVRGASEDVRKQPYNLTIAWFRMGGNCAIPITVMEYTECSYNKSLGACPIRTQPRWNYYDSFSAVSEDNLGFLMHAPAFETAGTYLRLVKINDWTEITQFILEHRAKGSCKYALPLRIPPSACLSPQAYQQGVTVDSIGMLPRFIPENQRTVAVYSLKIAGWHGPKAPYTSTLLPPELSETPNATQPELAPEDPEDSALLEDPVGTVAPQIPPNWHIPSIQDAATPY

For “GGGCACGAGAGAGGUCGUCCCCAGGGGAGAACUCGUGCUCCUGG [mini-1 RNA aptamer]”, which Kd is on record?
Its Kd is 4 nM.
